Km, Vmax and kcat data for two proteins are collected here from patent publication US9273290B2, “Method for producing phosphite dehydrogenase protein and use thereof” (priority 2011, dated 2016).

The term Km denotes the substrate concentration at which the rate is half of its maximum. Broadly, the Vmax is the top rate of the reaction or transport when substrate is in excess. The term kcat denotes the number of substrate molecules converted per active site and unit of time at saturation.

Substrate in series [1]: NC(=O)c1ccc[n+]([C@@H]2O[C@H](COP(=O)([O-])OP(=O)(O)OC[C@H]3O[C@@H](n4cnc5c(N)ncnc54)[C@H](O)[C@@H]3O)[C@@H](O)[C@H]2O)c1
Briefly: Reaction kinetic analysis: NADH production rate at varied NAD+ concentration. The series is classed as biochemical, Pseudomonas stutzeri WM88. Conditions: 28° C. The source says: By a well-known method, the base sequence of SEQ ID NO: 2 or a phosphite dehydrogenase gene (SEQ ID NO: 4) of P stutzeri WM88 was inserted into a plasmid pET21b (produced by Novagen) (an amino acid sequence of the protein encoded by the base sequence of SEQ ID NO: 4 is shown in SEQ ID NO: 3) to prepare (i) an expression vector of a fusion protein (see “PtxD4506” in FIG. 2) in which the C-terminal of the phosphite dehydrogenase protein of SEQ ID NO: 1 is labeled with a His tag or (ii) an expression vector of a fusion protein (see “PtxDPst” in FIG. 2) in which the C-terminal of the phosphite dehydrogenase protein of P stutzeri WM88 is labeled with a His tag.
The supernatant was supplied to a HisTrap column (produced by GE Healthcare) and, in accordance with protocols attached to the HisTrap column, a fusion protein in which a His tag was connected to the C-terminal of the phosphite dehydrogenase protein of SEQ ID NO: 1 was purified.
PtxD4506 and PtxDPst, which were purified with use of the HisTrap column in [3. Expression of Phosphite Dehydrogenase Protein By Using Escherichia Coli], were compared with each other in terms of reaction rate. The following description discusses how measurement of reaction rates was carried out.
Reaction rates of respective PtxD4506 and PtxDPst were calculated on the basis of (Reaction formula 1) shown in the section [Background Art].
Specifically, in the reaction system of (Reaction formula 1), a production rate of NADH was measured with use of 7.5 μg of each of the fusion proteins PtxD4506 and PtxDPst while a concentration of a substrate (NAD^+) was gradually changed from 0.5 μM to 200 μM. Note that a reaction temperature of the fusion protein PtxD4506 was 40° C., and a reaction temperature of the fusion protein PtxDPst was 28° C.
Based on the measured concentration of the substrate (NAD^+) and the measured production rate of NADH, values of Km (μM), Vmax (μmol/min/m), Kcat (min^−1), and Kcat/km were calculated in accordance with a well-known enzyme kinetic method (see, for example, “Fundamental Experiment Method of Proteins and Enzymes (2nd revised edition), Nankodo Co., Ltd.”). Note that the experiment was carried out three times, and values of Km, Vmax, Kcat, and Kcat/km were calculated in each of the experiments. Then, for each of Km, Vmax, Kcat, and Kcat/km, an average of the values calculated in the three experiments was obtained and defined as the value of each of Km, Vmax, Kcat, and Kcat/km. Kcat was calculated by the formula: Kcat=Vmax (μmol/min/mg)×(MW/10^3).

Substrate in series [2]: NC(=O)c1ccc[n+]([C@@H]2O[C@H](COP(=O)([O-])OP(=O)(O)OC[C@H]3O[C@@H](n4cnc5c(N)ncnc54)[C@H](O)[C@@H]3O)[C@@H](O)[C@H]2O)c1
Briefly: purified protein, by the assay type. The settings on record: 40° C.

[3] abbreviates: other: NAD+ 0.5 μM to 200 μM, individual experiments 1-3.
Where [4] appears, read: other: NAD+, average of three experiments.

Values joined by “and” are separate entries in the source; they are usually repeats but may differ in a detail not shown here. Identical values can stand only once.

B1: Pseudomonas stutzeri WM88 phosphite dehydrogenase, wild type, SEQ ID NO: 3, C-terminal His tag fusion (PtxDPst) (Stutzerimonas stutzeri) (protein)
chain: MLPKLVITHRVHDEILQLLAPHCELMTNQTDSTLTREEILRRCRDAQAMMAFMPDRVDADFLQACPELRVVGCALKGFDNFDVDACTARGVWLTFVPDLLTVPTAELAIGLAVGLGRHLRAADAFVRSGEFQGWQPQFYGTGLDNATVGILGMGAIGLAMADRLQGWGATLQYHEAKALDTQTEQRLGLRQVACSELFASSDFILLALPLNADTQHLVNAELLALVRPGALLVNPCRGSVVDEAAVLAALERGQLGGYAADVFEMEDWARADRPRLIDPALLAHPNTLFTPHIGSAVRAVRLEIERCAAQNIIQVLAGARPINAANRLPKAEPAAC
notes: His tag (C); made in house; host or cells: E. coli Rosetta2 (DE3), plasmid pET21b
Consider B1, for which the Km in series [1] (setting [3]) was 74.4 µM and 71.2 µM and 74.7 µM. For the same protein, in series [1] (setting [4]), the Km was 73.4 µM, the Vmax is 4.2 µmol/min/mg and the kcat is 2.827 s⁻¹.

B2: Ralstonia sp. strain 4506 phosphite dehydrogenase, SEQ ID NO: 1, C-terminal His tag fusion (PtxD4506) (Ralstonia sp. 4506) (protein)
chain: MKPKVVLTHWVHPEIIELLSASADVIPNTTRETLPRSEVIARAKDADALMAFMPDSIDSAFLEECPKLRVIGAALKGYDNFDVNACTRHGVWLTIVPDLLTIPTAELTIGLLLGLTRHMLEGDRQIRSGHFQGWRPTLYGSGLTGKTLGIIGMGAVGRAIAQRLAGFEMNLLYCDPIPLNAEQEKAWHVQRVTLDELLEKCDYVVPMVPMAAETLHLIDATALAKMKTGSYLINACRGSVVDENAVIAALASGKLAGYAADVFEMEEWIRADRPQAIPKALLDNTAQTFFTPHLGSAVKEVRLEIERQAAMNIIQALAGEKPMGAINQPYPGVKAA
Take B2: the Michaelis-Menten constant (Km) in series [2] (setting [3]) is 22.6 µM and 23.3 µM and 25.1 µM. Besides, in series [2] (setting [4]), the Km turned out to be 23.7 µM, the maximum rate (Vmax) amounted to 5.9 µmol/min/mg and the kcat stood at 3.957 s⁻¹.
